Here are results for nine molecules from paper PMC3005623 (Journal of molecular biology, 2010).

Holding throughout (assay): negative-stain electron microscopy
For data set [1], the target named is Cdc3–Cdc11–(His)6–Cdc12-Cdc10(Δ12–28) complex (Cdc11-Cdc12-Cdc3-Cdc10(Δ12–28) hetero-tetramer) (S. cerevisiae) (UniProt P32457).
For data set [2] the target is unchanged. The source holds these as a separate data set.
Data set [3] deals with the molecule itself.
The target of data set [4] is Cdc12(Δ318–407) (S. cerevisiae).
Data set [5] deals with the molecule itself. The source holds these as a separate data set.
Data set [6] concerns the molecule itself. The source holds these as a separate data set.

Positions count from the first letter of the chain named. Names may count otherwise. Read-outs that look alike come from different tables or passages of the source.

“Cdc3–Cdc11–(His)6–Cdc12-Cdc10(Δ12–28) complex (Cdc11-Cdc12-Cdc3-Cdc10(Δ12–28) hetero-tetramer) (from UniProt P32457 1-520; P32458 1-415; P32468 1-407; P25342 1-322)”: in data set [1], the percent of particles that are heptamers turned out to be 18.2%, the percent of particles that are hexamers came out at 10.8%, the percent of particles that are octamers came to 21.8% and the percent of particles that are pentamers was 8.03%. Besides, the percent of particles that are tetramers in data set [1] was determined as 41.3%. In data set [2], this molecule registered a percent of particles that are tetramers of 88.3% and a percent of particles that are trimers of 11.7%.

B1: Cdc11 (natural protein, S. cerevisiae, UniProt P32458 1-415, looked up)
chain: MSGIIDASSALRKRKHLKRGITFTVMIVGQSGSGRSTFINTLCGQQVVDTSTTILLPTDTSTEIDLQLREETVELEDDEGVKIQLNIIDTPGFGDSLDNSPSFEIISDYIRHQYDEILLEESRVRRNPRFKDGRVHCCLYLINPTGHGLKEIDVEFIRQLGSLVNIIPVISKSDSLTRDELKLNKKLIMEDIDRWNLPIYNFPFDEDEISDEDYETNMYLRTLLPFAIIGSNEVYEMGGDVGTIRGRKYPWGILDVEDSSISDFVILRNALLISHLHDLKNYTHEILYERYRTEALSGESVAAESIRPNLTKLNGSSSSSTTTRRNTNPFKQSNNINNDVLNPASDMHGQSTGENNETYMTREEQIRLEEERLKAFEERVQQELLLKRQELLQREKELREIEARLEKEAKIKQEE
Turning to B1, the binding result in data set [3] is on record as “binds”. In addition, in data set [4], the percent of particles that are heptamers worked out at 31.5%, the percent of particles that are hexamers stood at 18.5% and the percent of particles that are octamers worked out at 50%.

B2: Cdc3(R111A R112A K115A)–Cdc11–(His)6–Cdc12-Cdc10 complex (complex, S. cerevisiae)
chain 1: MSLKEEQVSIKQDPEQEERQHDQFNDVQIKQESQDHDGVDSQYTNGTQNDDSERFEAAESDVKVEPGLGMGITSSQSEKGQVLPDQPEIKFIRRQINGYVGFANLPKQWHAASIANGFSFNLLCVGPDGIGKTTLMKTLFNNDDIEANLVKDYEEELANDQEEEEGQGEGHENQSQEQRHKVKIKSYESVIEENGVKLNLNVIDTEGFGDFLNNDQKSWDPIIKEIDSRFDQYLDAENKINRHSINDKRIHACLYFIEPTGHYLKPLDLKFMQSVYEKCNLIPVIAKSDILTDEEILSFKKTIMNQLIQSNIELFKPPIYSNDDAENSHLSERLFSSLPYAVIGSNDIVENYSGNQVRGRSYPWGVIEVDNDNHSDFNLLKNLLIKQFMEELKERTSKILYENYRSSKLAKLGIKQDNSVFKEFDPISKQQEEKTLHEAKLAKLEIEMKTVFQQKVSEKEKKLQKSETELFARHKEMKEKLTKQLKALEDKKKQLELSINSASPNVNHSPVPTKKKGFLR
chain 2: B1 chain
chain 3: MSAATATAAPVPPPVGISNLPNQRYKIVNEEGGTFTVMLCGESGLGKTTFINTLFQTVLKRADGQQHRQEPIRKTVEIDITRALLEEKHFELRVNVIDTPGFGDNVNNNKAWQPLVDFIDDQHDSYMRQEQQPYRTKKFDLRVHAVLYFIRPTGHGLKPIDIETMKRLSTRANLIPVIAKADTLTAQELQQFKSRIRQVIEAQEIRIFTPPLDADSKEDAKSGSNPDSAAVEHARQLIEAMPFAIVGSEKKFDNGQGTQVVARKYPWGLVEIENDSHCDFRKLRALLLRTYLLDLISTTQEMHYETYRRLRLEGHENTGEGNEDFTLPAIAPARKLSHNPRYKEEENALKKYFTDQVKAEEQRFRQWEQNIVNERIRLNGDLEEIQGKVKKLEEQVKSLQVKKSHLK
chain 4: MDPLSSVQPASYVGFDTITNQIEHRLLKKGFQFNIMVVGQSGLGKSTLINTLFASHLIDSATGDDISALPVTKTTEMKISTHTLVEDRVRLNINVIDTPGFGDFIDNSKAWEPIVKYIKEQHSQYLRKELTAQRERFITDTRVHAILYFLQPNGKELSRLDVEALKRLTEIANVIPVIGKSDTLTLDERTEFRELIQNEFEKYNFKIYPYDSEELTDEELELNRSVRSIIPFAVVGSENEIEINGETFRGRKTRWSAINVEDINQCDFVYLREFLIRTHLQDLIETTSYIHYEGFRARQLIALKENANSRSSAHMSSNAIQR
Regarding B2, the binding result in data set [3] was “binds”.

B3: Cdc3–Cdc11–(His)6–Cdc12-Cdc10(I22E) complex (complex, S. cerevisiae)
chain 1: B2 chain 1 with A111R, A112R, A115K
chain 2: B1 chain
chain 3: B2 chain 3
chain 4: B2 chain 4 with I22E
For B3, in data set [5], the “percent of particles that are heptamers” value is 24.9%.

B4: Cdc3(K90A R93A R94A)–Cdc11–(His)6–Cdc12-Cdc10 complex (complex, S. cerevisiae)
chain 1: B2 chain 1 with K90A, R93A, R94A, A111R, A112R, A115K
chain 2: B1 chain
chain 3: B2 chain 3
chain 4: B2 chain 4
As for B4, the binding result in data set [3] is “binds”.

B5: Cdc3–Cdc11–(His)6–Cdc12-Cdc10(H24A R25A K28A K29A) complex (complex, S. cerevisiae)
chain 1: B2 chain 1 with A111R, A112R, A115K
chain 2: B1 chain
chain 3: B2 chain 3
chain 4: B2 chain 4 with H24A, R25A, K28A, K29A
On to B5, for which the “percent of particles that are heptamers” value in data set [5] was 14.2%.

B6: Cdc10 (natural protein, S. cerevisiae, UniProt P25342 1-322, looked up)
chain: B2 chain 4
For B6, the binding result in data set [6] is “binds”.

B7: Cdc10(I22E) (natural protein, S. cerevisiae, UniProt P25342 1-322, looked up)
chain: B2 chain 4 with I22E
In the case of B7, the binding result in data set [6] is reported as “binds”.

B8: Cdc10(H24A R25A K28A K29A) (natural protein, S. cerevisiae, UniProt P25342 1-322, looked up)
chain: B2 chain 4 with H24A, R25A, K28A, K29A
For B8, the binding result in data set [6] is “binds”.
